Results published in IntAct's records for PubMed 28712572.

target: gbrap_human GABARAP (UniProt O95166)
Sequence (O95166 whole entry): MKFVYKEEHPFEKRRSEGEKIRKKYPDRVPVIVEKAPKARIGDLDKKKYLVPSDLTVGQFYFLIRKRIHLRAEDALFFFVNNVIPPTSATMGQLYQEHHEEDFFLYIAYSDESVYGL

Row | Substance | effect of a mutation on the interaction
1 | Pericentriolar material 1 protein (Homo sapiens), Q15154 S1955T | with no effect
2 | Pericentriolar material 1 protein (Homo sapiens), Q15154 S1955V | decreasing interaction strength
3 | Pericentriolar material 1 protein (Homo sapiens), Q15154 S1955W | with no effect
4 | Pericentriolar material 1 protein (Homo sapiens), Q15154 S1955Y | with no effect
5 | Pericentriolar material 1 protein (Homo sapiens), Q15154 S1958A | with no effect
6 | Pericentriolar material 1 protein (Homo sapiens), Q15154 S1958C | with no effect
7 | Pericentriolar material 1 protein (Homo sapiens), Q15154 S1958D | with no effect
8 | Pericentriolar material 1 protein (Homo sapiens), Q15154 S1958E | with no effect
9 | Pericentriolar material 1 protein (Homo sapiens), Q15154 S1958F | with no effect
10 | Pericentriolar material 1 protein (Homo sapiens), Q15154 S1958G | with no effect
11 | Pericentriolar material 1 protein (Homo sapiens), Q15154 S1958H | with no effect
12 | Pericentriolar material 1 protein (Homo sapiens), Q15154 S1958N | with no effect
13 | Pericentriolar material 1 protein (Homo sapiens), Q15154 S1958Q | with no effect
14 | Pericentriolar material 1 protein (Homo sapiens), Q15154 S1958T | with no effect
15 | Pericentriolar material 1 protein (Homo sapiens), Q15154 S1958V | with no effect
16 | Pericentriolar material 1 protein (Homo sapiens), Q15154 S1958Y | with no effect
17 | Pericentriolar material 1 protein (Homo sapiens), Q15154 T1974A | with no effect
18 | Pericentriolar material 1 protein (Homo sapiens), Q15154 T1974C | with no effect
19 | Pericentriolar material 1 protein (Homo sapiens), Q15154 T1974F | with no effect
20 | Pericentriolar material 1 protein (Homo sapiens), Q15154 T1974G | with no effect
21 | Pericentriolar material 1 protein (Homo sapiens), Q15154 T1974H | with no effect

Row | Substance | effect of a mutation on the interaction
22 | Pericentriolar material 1 protein (Homo sapiens), Q15154 T1974I | with no effect
23 | Pericentriolar material 1 protein (Homo sapiens), Q15154 T1974L | with no effect
24 | Pericentriolar material 1 protein (Homo sapiens), Q15154 T1974M | with no effect
25 | Pericentriolar material 1 protein (Homo sapiens), Q15154 T1974P | with no effect
26 | Pericentriolar material 1 protein (Homo sapiens), Q15154 T1974R | with no effect
27 | Pericentriolar material 1 protein (Homo sapiens), Q15154 T1974W | with no effect
28 | Pericentriolar material 1 protein (Homo sapiens), Q15154 V1964A | disrupting interaction strength
29 | Pericentriolar material 1 protein (Homo sapiens), Q15154 V1964F | with no effect
30 | Pericentriolar material 1 protein (Homo sapiens), Q15154 V1964I | with no effect
31 | Pericentriolar material 1 protein (Homo sapiens), Q15154 V1964N | disrupting interaction strength
32 | Pericentriolar material 1 protein (Homo sapiens), Q15154 V1964P | disrupting interaction strength
33 | Pericentriolar material 1 protein (Homo sapiens), Q15154 V1964Q | disrupting interaction strength
34 | Pericentriolar material 1 protein (Homo sapiens), Q15154 V1964R | disrupting interaction strength
35 | Pericentriolar material 1 protein (Homo sapiens), Q15154 V1964S | disrupting interaction strength
36 | Pericentriolar material 1 protein (Homo sapiens), Q15154 V1964T | disrupting interaction strength
37 | Pericentriolar material 1 protein (Homo sapiens), Q15154 V1964W | disrupting interaction strength
38 | Pericentriolar material 1 protein (Homo sapiens), Q15154 V1966A | disrupting interaction strength
39 | Pericentriolar material 1 protein (Homo sapiens), Q15154 V1966E | disrupting interaction strength
40 | Pericentriolar material 1 protein (Homo sapiens), Q15154 V1966F | with no effect
41 | Pericentriolar material 1 protein (Homo sapiens), Q15154 V1966G | disrupting interaction strength
42 | Pericentriolar material 1 protein (Homo sapiens), Q15154 V1966H | disrupting interaction strength

Other lines, results leading:

Row | effect of a mutation on the interaction | Substance
43 | with no effect | Pericentriolar material 1 protein (Homo sapiens), Q15154 S1955R
44 | with no effect | Pericentriolar material 1 protein (Homo sapiens), Q15154 S1958I
45 | with no effect | Pericentriolar material 1 protein (Homo sapiens), Q15154 S1958K
46 | with no effect | Pericentriolar material 1 protein (Homo sapiens), Q15154 S1958L
47 | with no effect | Pericentriolar material 1 protein (Homo sapiens), Q15154 S1958M
48 | with no effect | Pericentriolar material 1 protein (Homo sapiens), Q15154 S1958P
49 | with no effect | Pericentriolar material 1 protein (Homo sapiens), Q15154 S1958R
50 | with no effect | Pericentriolar material 1 protein (Homo sapiens), Q15154 S1958W
51 | with no effect | Pericentriolar material 1 protein (Homo sapiens), Q15154 T1974D
52 | with no effect | Pericentriolar material 1 protein (Homo sapiens), Q15154 T1974E
53 | with no effect | Pericentriolar material 1 protein (Homo sapiens), Q15154 T1974K
54 | with no effect | Pericentriolar material 1 protein (Homo sapiens), Q15154 T1974N
55 | with no effect | Pericentriolar material 1 protein (Homo sapiens), Q15154 T1974Q
56 | with no effect | Pericentriolar material 1 protein (Homo sapiens), Q15154 T1974S
57 | with no effect | Pericentriolar material 1 protein (Homo sapiens), Q15154 T1974V
58 | with no effect | Pericentriolar material 1 protein (Homo sapiens), Q15154 T1974Y
59 | with no effect | Pericentriolar material 1 protein (Homo sapiens), Q15154 V1964C
60 | decreasing interaction strength | Pericentriolar material 1 protein (Homo sapiens), Q15154 V1964D
61 | with no effect | Pericentriolar material 1 protein (Homo sapiens), Q15154 V1964E
62 | disrupting interaction strength | Pericentriolar material 1 protein (Homo sapiens), Q15154 V1964G
63 | disrupting interaction strength | Pericentriolar material 1 protein (Homo sapiens), Q15154 V1964H
64 | disrupting interaction strength | Pericentriolar material 1 protein (Homo sapiens), Q15154 V1964K
65 | decreasing interaction strength | Pericentriolar material 1 protein (Homo sapiens), Q15154 V1964L
66 | disrupting interaction strength | Pericentriolar material 1 protein (Homo sapiens), Q15154 V1964M
67 | decreasing interaction strength | Pericentriolar material 1 protein (Homo sapiens), Q15154 V1964Y
68 | disrupting interaction strength | Pericentriolar material 1 protein (Homo sapiens), Q15154 V1966C
69 | disrupting interaction strength | Pericentriolar material 1 protein (Homo sapiens), Q15154 V1966D
